No end group written: not given here. *: point of attachment. Cbz = O=C(OCc1ccccc1)*
What was measured:
[1] = biological target: T1, MTG (Streptomyces mobaraensis, UniProt P81453); test: GLDH-coupled continuous assay for MTG activity in solution, Lys-containing substrate peptides; assay type: biochemical
T1 construct: purchased Zedira GmbH
T1 sequence (P81453 77-407): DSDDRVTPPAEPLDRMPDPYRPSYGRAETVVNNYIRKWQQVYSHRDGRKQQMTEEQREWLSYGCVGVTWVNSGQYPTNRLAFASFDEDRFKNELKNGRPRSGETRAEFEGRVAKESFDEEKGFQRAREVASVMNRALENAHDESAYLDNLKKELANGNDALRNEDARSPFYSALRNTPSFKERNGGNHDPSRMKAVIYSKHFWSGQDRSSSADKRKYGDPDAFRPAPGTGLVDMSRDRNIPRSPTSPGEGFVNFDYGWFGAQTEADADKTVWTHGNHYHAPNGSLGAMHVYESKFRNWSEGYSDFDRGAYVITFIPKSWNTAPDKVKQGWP
Procedure: (§1) FIG. 3 is a plot of MTG activity obtained by measuring rates of NADH oxidation at 340 nm and 37° C. using various concentrations of the di-peptide QG (1-20 mM) and the peptide […] (SEQ ID NO: 86) (0.2-5 mM) in the GLDH-coupled assay. The Michaelis-Menten equation was used to fit hyperbolic curves to the data points, giving Km and Vmax parameters and allowing calculation of turnover number (kcat) and catalytic efficiency (kcat/KM). Improved performance of array selected […] (SEQ ID NO: 86) (open squares) substrate was observed compared to standard QG-substrate (filled squares). ‘Z’ represents a carboxybenzyl protective group. […] The Michaelis-Menten equation was used to fit hyperbolic curves to the data points, giving Km and Vmax parameters as well as allowing calculation of turnover number (kcat) and catalytic efficiency (kcat/KM). Improved performance of array selected […] (SEQ ID NO: 80) (filled squares) substrate was observed as compared to a […] (SEQ ID NO: 81) substrate (filled circles). ‘Z-’ represents a carboxybenzyl protective group.
Lys-tag peptides were assayed in solution analog to the Gln-containing substrates: The assay was performed in a 96-well microtiter plate in the presence of 1.25 mM α-ketoglutarate, 100 μM Z-[…] (SEQ ID NO: 86) peptide as […], 0.2 U of glutamate dehydrogenase (GLDH), 500 μM NADH and Lys-containing substrate peptide concentrations ranging between 0 and 500 μM in 200 mM MOPS, 1 mM EDTA pH 7.2 (total volume per well 200 μl). The reaction was started by the addition of 0.1 U of MTG (Zedira GmbH) and the oxidation of NADH was continuously recorded against a blank at 340 nm for 20 min using a Biotek Synergy H4 microplate reader thermostated at 37° C. with short shaking intervals before each measurement. After a short lag phase, where the GLDH was saturated by MTG-mediated release of ammonia, linear rates of absorbance versus time, corresponding to MTG turnover, were observed, and subjected to Michaelis-Menten kinetic analysis.

[2] = biological target: T1, MTG; test: GLDH-coupled continuous assay for MTG activity in solution, Gln-containing substrate peptides; assay type: biochemical; conditions: pH 7.2, 37° C.
Procedure: as §1
It was next determined whether peptides selected in the array assay were also preferred substrates in the solution reaction. The performance of the […] (SEQ ID NO: 26) peptide found in the array assay and the QG peptide substrate commonly used for testing MTG activity were compared. […]
The assay was performed in a 96-well microtiter plate in the presence of 10 mM α-ketoglutarate, 10 mM glycine methyl ester as acyl acceptor, 2 U of glutamate dehydrogenase (GLDH), 500 μM NADH (i.e., reduced nicotinamide adenine dinucleotide) and Gln-containing substrate peptide concentrations ranging between 0.2 and 20 mM in 200 mM MOPS (i.e., 3-(N-morpholino)propanesulfonic acid), 1 mM EDTA pH 7.2 (total volume per well 200 μl). The reaction was started by the addition of 0.1 U of MTG (Zedira GmbH) and the oxidation of NADH was continuously recorded against a blank at 340 nm for 20 min using a Biotek Synergy H4 microplate reader thermostated at 37° C. with short shaking intervals before each measurement. […]

[3] = BIACORE 3000 binding kinetics of VitDBP constructs to biotin labeled 25-OH-VitD2; conditions: 25° C.
Procedure: Experiments were carried out to determine whether the addition of an array-selected motif interferes with the ability of VitDBP to bind to its natural ligand, 25-hydroxylated vitamin D2 (25-OH-VitD2). The glutamine donor motif selected for use was […] (i.e., SEQ ID NO 86). A BIACORE SA sensor was mounted into a BIACORE 3000 instrument. The instrument was tempered at 25° C. The sensor was preconditioned as recommended by the manufacturer (GE Healthcare). The system buffer was PBS pH 8.2 with 5% DMSO and 0.05% TWEEN20. The sample buffer was the system buffer supplemented with 1 mg per ml CMD (Sigma). From a 300 nM biotin labeled 25-OH-VitD2 (25-OH-VitD2-bi) sample solution 860 RU were captured on the sensor flow cell 2 by a 2 min injection at 10 μl per minute. The sensor surface was finally saturated by 5 μM amino-PEO-biotin (Pierce). As a reference, 1 μM amino-PEO-biotin was injected into flow cell 1 for 1 min at a rate of 10 μl per minute.
The analytes wt-VitDBP-His8 and wt-VitDBP-His8-Q2 were compared for their binding behavior towards 25-OH-VitD2. The Gln-motif was later ruthenylated by an MTG catalyzed reaction as described (FIGS. 10A and 10B).
The analytes were injected in concentration series of 600 nM, 200 nM, 67 nM, 22 nM, 7.4 nM and 0 nM (buffer only). The analyte association was monitored for 3 min and the dissociation for 5 min both at 20 μl per minute (FIGS. 11 and 12).
After each injection the system was regenerated by a 100 mM HCl injection for 1 minute and 15 seconds at 20 μl per minute followed by a 2 min injection of 10 mM glycine buffer pH 1.5. The data was overlayed in a BIACORE sensorgram and kinetic data was calculated by fitting a Langmuir 1:1 binding model to the data obtained as recommended by the manufacturer using the Biaevaluation Software version 4.1.

## Z-GGGDEKPDGGGG (Cbz-GGGDEKPDGGGG) [reference compound]
[1]; kinetic data could not be determined
  MTG activity (in words): extremely low activity

## Z-GGGARSKLGGGG
[1]
  apparent difference in MTG catalytic efficiency compared to low-signal substrate GGGDEKPDGGGG: at least 10 fold
[1]; Lys-peptide 0-500 μM, 100 μM Z-GGGDYALQGGGG, pH 7.2, 37° C.
  Km: 66.8 ± 20.2 µM
[1]; Lys-peptide, 0.1 U MTG, pH 7.2, 37° C.
  Vmax: 5.1 ± 0.5 pmol/s
[1]; Lys-peptide, pH 7.2, 37° C.
  kcat: 0.066 s⁻¹

## Z-GGGDYALQGGGG (Cbz-GGGDYALQGGGG)
[2]; Gln-peptide 0.2-20 mM, 10 mM glycine methyl ester as acyl acceptor
  Km: 970 ± 320 µM
[2]; Gln-peptide, 0.1 U MTG
  Vmax: 0.46 ± 0.06 nmol/s
[2]; Gln-peptide
  kcat: 6.0 s⁻¹

B1: wt-VDBP-His8: wild type vitamin D binding protein with C-terminally fused 8× Histidine tag, without Q2 tag (protein, UniProt P02774 17-474, looked up)
Vitamin D-binding protein: LERGRDYEKNKVCKEFSHLGKEDFTSLSLVLYSRKFPSGTFEQVSQLVKEVVSLTEACCAEGADPDCYDTRTSALSAKSCESNSPFPVHPGTAECCTKEGLERKLCMAALKHQPQEFPTYVEPTNDEICEAFRKDPKEYANQFMWEYSTNYGQAPLSLLVSYTKSYLSMVGSCCTSASPTVCFLKERLQLKHLSLLTTLSNRVCSQYAAYGEKKSRLSNLIKLAQKVPTADLEDVLPLAEDITNILSKCCESASEDCMAKELPEHTVKLCDNLSTKNSKFEDCCQEKTAMDVFVCTYFMPAAQLPELPDVELPTNKDVCDPGNTKVMDKYTFELSRRTHLPEVFLSKVLEPTLKSLGECCDVEDSTTCFNAKGPLLKKELSSFIDKGQELCADYSENTFTEYKKKLAERLKAKLPDATPTELAKLVNKHSDFASNCCSINSPPLYCDSEIDAELKNIL
modifications: His8 tag
[3]; Langmuir 1:1 binding model
  Kd: 95 nM
  ka: 13800 M⁻¹ s⁻¹
  kd: 0.00131 s⁻¹
[3]; Ligand VitD2-250H-biotin (300 nM)
  Kd: 95 nM
